# Data taken from patent US20190134153A1, “IMMUNOMODULATORY EFFECT OF INHALED KINASE INHIBITOR PEPTIDES IN LUNG” (MOERAE MATRIX, INC., priority 2017, published 2019).
# Legend:
# Test in all cases: Kinase Profiling Assay
# Format in all cases: biochemical
# Details in all cases: 100 μM
# [1] = target: T1, ULK3(h) (Homo sapiens, UniProt Q6PHR2)
# T1 sequence (Q6PHR2 1-472): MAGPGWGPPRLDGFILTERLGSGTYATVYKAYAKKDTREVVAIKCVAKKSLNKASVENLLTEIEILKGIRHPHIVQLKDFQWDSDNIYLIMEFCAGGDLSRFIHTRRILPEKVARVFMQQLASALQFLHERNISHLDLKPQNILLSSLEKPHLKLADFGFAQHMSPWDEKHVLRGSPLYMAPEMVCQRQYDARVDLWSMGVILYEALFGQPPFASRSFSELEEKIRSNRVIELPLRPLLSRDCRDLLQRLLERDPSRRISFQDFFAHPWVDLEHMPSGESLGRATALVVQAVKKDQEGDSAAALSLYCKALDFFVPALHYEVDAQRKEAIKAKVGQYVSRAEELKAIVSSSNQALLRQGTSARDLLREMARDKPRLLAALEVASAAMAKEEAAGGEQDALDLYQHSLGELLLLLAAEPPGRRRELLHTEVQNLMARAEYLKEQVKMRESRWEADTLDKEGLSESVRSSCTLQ
# [2] = target: T2, Mer(h) (Homo sapiens, UniProt Q12866)
# T2 sequence (Q12866 21-999): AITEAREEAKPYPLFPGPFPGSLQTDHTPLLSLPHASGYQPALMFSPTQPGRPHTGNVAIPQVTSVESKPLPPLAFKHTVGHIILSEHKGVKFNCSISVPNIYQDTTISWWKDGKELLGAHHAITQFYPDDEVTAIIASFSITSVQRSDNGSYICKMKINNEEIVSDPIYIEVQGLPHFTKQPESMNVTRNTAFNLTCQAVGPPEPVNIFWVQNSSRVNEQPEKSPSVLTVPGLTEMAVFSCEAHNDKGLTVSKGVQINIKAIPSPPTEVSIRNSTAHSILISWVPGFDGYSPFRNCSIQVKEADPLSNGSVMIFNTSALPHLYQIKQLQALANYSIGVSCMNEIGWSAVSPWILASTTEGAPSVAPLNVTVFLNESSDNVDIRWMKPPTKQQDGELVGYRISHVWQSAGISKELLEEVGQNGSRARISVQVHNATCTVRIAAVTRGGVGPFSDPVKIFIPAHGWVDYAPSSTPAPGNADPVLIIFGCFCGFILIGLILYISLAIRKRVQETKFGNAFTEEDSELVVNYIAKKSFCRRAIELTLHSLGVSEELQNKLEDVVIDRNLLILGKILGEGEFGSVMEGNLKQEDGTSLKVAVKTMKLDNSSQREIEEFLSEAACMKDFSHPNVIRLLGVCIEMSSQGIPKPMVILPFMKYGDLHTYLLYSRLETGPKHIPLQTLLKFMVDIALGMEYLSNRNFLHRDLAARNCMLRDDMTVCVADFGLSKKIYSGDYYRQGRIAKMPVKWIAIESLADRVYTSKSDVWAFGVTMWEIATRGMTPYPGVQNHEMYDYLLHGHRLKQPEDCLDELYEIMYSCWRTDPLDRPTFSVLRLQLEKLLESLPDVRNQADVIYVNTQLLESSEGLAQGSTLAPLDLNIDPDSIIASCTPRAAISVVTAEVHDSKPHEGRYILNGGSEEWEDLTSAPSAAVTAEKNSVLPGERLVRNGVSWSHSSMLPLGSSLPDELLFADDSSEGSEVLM
# [3] = target: PTK5(h) (Homo sapiens, UniProt P42685)
# [4] = target: SAPK2b(h) (Homo sapiens, UniProt Q15759)
# [5] = target: T3, DYRK2(h) (Homo sapiens, UniProt Q92630)
# T3 sequence (Q92630 1-601): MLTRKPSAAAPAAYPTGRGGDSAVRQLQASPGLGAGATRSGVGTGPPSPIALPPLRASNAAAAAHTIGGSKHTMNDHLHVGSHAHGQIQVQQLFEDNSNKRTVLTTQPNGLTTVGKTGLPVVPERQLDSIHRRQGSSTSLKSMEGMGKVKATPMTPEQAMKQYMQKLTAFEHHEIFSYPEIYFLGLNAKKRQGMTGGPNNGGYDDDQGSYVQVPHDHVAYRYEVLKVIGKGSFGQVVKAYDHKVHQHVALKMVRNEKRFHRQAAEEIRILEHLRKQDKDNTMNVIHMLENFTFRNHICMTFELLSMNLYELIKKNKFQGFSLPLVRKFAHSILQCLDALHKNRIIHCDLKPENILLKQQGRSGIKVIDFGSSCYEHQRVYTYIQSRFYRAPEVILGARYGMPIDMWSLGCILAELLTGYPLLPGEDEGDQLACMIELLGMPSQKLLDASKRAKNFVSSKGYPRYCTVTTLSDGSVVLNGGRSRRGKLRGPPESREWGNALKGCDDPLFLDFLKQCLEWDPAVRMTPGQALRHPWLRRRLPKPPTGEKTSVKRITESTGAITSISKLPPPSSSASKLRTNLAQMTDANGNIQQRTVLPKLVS
# [6] = target: EGFR(h) (Homo sapiens, UniProt P00533)
# [7] = target: T4, SGK3(h) (Homo sapiens, UniProt Q96BR1)
# T4 sequence (Q96BR1 1-496): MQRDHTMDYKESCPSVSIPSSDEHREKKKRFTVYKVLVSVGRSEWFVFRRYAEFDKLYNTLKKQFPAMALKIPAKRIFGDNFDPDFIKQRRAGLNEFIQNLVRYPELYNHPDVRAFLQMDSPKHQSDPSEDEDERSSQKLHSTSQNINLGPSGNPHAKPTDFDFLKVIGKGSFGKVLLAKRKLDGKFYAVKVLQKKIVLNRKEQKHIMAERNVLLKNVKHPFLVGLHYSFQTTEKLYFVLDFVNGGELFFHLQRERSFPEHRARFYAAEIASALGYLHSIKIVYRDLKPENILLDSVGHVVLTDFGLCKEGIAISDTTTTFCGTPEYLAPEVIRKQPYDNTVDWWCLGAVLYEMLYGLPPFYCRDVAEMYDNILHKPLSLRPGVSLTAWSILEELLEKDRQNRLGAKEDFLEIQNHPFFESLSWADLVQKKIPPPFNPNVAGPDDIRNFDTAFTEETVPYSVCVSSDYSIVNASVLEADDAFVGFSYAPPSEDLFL
# Chain of SAPK2b(h) (Q15759 whole entry): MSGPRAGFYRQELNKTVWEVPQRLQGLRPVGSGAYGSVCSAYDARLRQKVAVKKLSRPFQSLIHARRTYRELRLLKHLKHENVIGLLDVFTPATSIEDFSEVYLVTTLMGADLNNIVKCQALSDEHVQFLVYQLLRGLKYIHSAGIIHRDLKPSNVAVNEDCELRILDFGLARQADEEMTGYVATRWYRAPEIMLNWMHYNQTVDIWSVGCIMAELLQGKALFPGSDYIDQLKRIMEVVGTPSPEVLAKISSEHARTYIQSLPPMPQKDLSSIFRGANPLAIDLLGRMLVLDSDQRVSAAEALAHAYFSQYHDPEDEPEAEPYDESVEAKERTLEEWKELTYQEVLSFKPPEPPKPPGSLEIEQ
# Chain of PTK5(h) (P42685 whole entry): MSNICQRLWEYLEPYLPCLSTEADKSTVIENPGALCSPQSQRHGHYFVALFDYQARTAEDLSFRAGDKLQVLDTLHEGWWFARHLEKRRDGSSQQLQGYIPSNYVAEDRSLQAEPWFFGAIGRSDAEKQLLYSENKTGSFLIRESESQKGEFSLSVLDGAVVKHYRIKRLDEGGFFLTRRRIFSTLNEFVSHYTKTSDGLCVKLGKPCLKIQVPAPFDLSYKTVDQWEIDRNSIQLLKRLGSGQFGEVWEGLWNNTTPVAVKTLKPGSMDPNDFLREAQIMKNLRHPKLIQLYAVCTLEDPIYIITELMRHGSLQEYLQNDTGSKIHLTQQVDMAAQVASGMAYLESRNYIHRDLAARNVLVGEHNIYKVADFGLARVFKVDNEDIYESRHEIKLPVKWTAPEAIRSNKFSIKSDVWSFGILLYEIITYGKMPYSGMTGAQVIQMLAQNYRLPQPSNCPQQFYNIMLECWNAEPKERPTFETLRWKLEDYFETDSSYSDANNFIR
Sequence,% activity [1],% activity [2],% activity [3],% activity [4],% activity [5],% activity [6],% activity [7]
YARAAARQARAKALNRQLGVA [MMI-0200],164%,90%,108%,95%,142%,83%,58%
FAKLAARLYRKALARQLGVAA [MMI-0300],167%,52%,132%,81%,155%,21%,10%
KAFAKLAARLYRKALARQLGVAA [MMI-0400],147%,50%,129%,82%,195%,16%,8%
HRRIKAWLKKIKALARQLGVAA [MMI-0500],177%,17%,96%,42%,127%,−1%,−3%
